Reference: article PMC11782079

Experiments:
[1] = molecular target: Coprobacillus sp. D7 FaRel2 toxin, catalytically impaired Y128F variant (Coprobacillus sp. D7)
[2] = molecular target: FaRel2-Δ166–206 (Coprobacillus sp. D7); experiment: ITC; ATfaRel2 or variant in the syringe at 200-150 uM, FaRel2 in the cell at 15-20 uM; 25 °C; 25 mM HEPES pH 7.6, 300 mM NaCl, 2 mM MgCl2, 1 mM TCEP

Substance | stoichiometry N [1] | Kd [1] | Kd [2]
ATfaRel2 A50M (natural protein) | 1.1 |  | 
ATfaRel2 F59A (natural protein) | 0.99 | 2150 nM | 
ATfaRel2 I45A (natural protein) | 0.91 | 868 nM | 
ATfaRel2 V43A (natural protein) | 0.97 |  | 
ATfaRel2 Y51A (natural protein) | 0.9 | 1520 nM | 
ATfaRel2 Y54A (natural protein) | 0.92 | 8750 nM | 
ATfaRel2 antitoxin (wild type) (natural protein) |  |  | 3300 nM
Coprobacillus sp. D7 ATfaRel2 antitoxin (natural protein) | 1.1 |  | 
